The source of these data is patent US20260258115A1 (MAPP BIOPHARMACEUTICAL, published 2026).

Experiment [1] concerns the target RSV prefusion F, subtype A (preF, DS-Cav1 trimer) (Respiratory syncytial virus subtype A, UniProt P03420 26-513). In words: BLI, IgG apparent affinity. (In general: In BLI a coated tip is dipped into the sample, and binding shifts an interference pattern.)
The target of experiment [2] is T1, RSV postfusion F, subtype B (postF trimer) (Respiratory syncytial virus subtype B, UniProt P13843 26-513).
T1 construct: also called Postfusion subtype B
The experiment in a line: BLI, IgG apparent affinity.

Experiment [3] deals with T2, RSV postfusion F, subtype A (postF, F ΔFP trimer) (Respiratory syncytial virus subtype A, UniProt P03420 26-513).
T2 construct: also called Postfusion subtype A
The experiment in a line: BLI, IgG apparent affinity.

The target in experiment [4] is RSV F on recombinant mKate-RSV A2 virus (Respiratory syncytial virus A2, UniProt P03420 26-574). In words: cell-based or functional assay.
The target of experiment [5] is RSV F on recombinant mKate-RSV B 18537 virus (Respiratory syncytial virus B 18537, UniProt P13843 26-574). The experiment in a line: cell-based or functional assay.
The target in experiment [6] is RSV prefusion F (preF), DS-Cav1 (Respiratory Syncytial Virus, UniProt P03420 26-513). In words: BLI, IgG on anti-human IgG sensor, 100 nM antigen, 1:1 fit.
The next experiment deals with RSV F on RSV-A2 virus (Respiratory Syncytial Virus (RSV-A2), UniProt P03420 26-574). The experiment in a line: cell-based or functional assay.
In experiment [7] the target is RSV postfusion F (postF), F ΔFP (Respiratory Syncytial Virus, UniProt P03420 26-513). In words: BLI, IgG on anti-human IgG sensor.
In experiment [8] the target is RSV postfusion F (postF), F ΔFP trimer, subtype A (Respiratory Syncytial Virus, subtype A, UniProt P03420 26-513). In words: BLI, IgG on anti-human IgG sensors.
In experiment [9] the target is RSV prefusion F (preF), DS-Cav1 stabilized trimer, subtype A (Respiratory Syncytial Virus, subtype A, UniProt P03420 26-513). The experiment in a line: BLI, IgG on anti-human IgG sensors, 100 nM antigen, apparent KD.
The target in experiment [10] is RSV F on RSV subtype A virus (RSV-A2) (Respiratory Syncytial Virus, subtype A, …, UniProt P03420 26-574). In words: cell-based or functional assay.

B1: ADI-21085 (antibody, V domains shown)
VH: EVQLVETGGGLVKPGGSLRLSCEASGFNFRSYSMNWVRQAPGKGLEWVSSISASSSYINYADSVKGRFTISRDNSKNSLYLQMNSLRAEDTGVYYCARVLVHYYYGMDVWGQGTTVTVSS
VL: QSVLTQPPSVSAAPGQRVTISCTGTSSNIGAGYDVHWYQQLPGRAPKLLILGNNNRPSGVPDRFSGSKSGTSASLAITGLQAEDEADYYCQTYDKTLMEIFGGGTKLTVL
notes: also called Ab 330
Turning to B1, the Kd in [1] came out at 0.307 nM; in experiment [2] it was 6.24 nM. Further, in experiment [3], the binding result was “no binding”. For the same molecule, in [4], the “Neut IC50 (ug/ml) subtype A” value turned out to be 0.1 µg/mL. In addition, the “Neut IC50 (ug/ml) subtype B” value in experiment [5] is 0.48 µg/mL.

B2: ADI-43645 (antibody, V domains shown)
VH: QVQLVQSGAEVKKPGSSVKVSCKASGGTFSSYAISWVRQAPGQGLEWMGGIIPIFGTANYAQKFQGRVTITADESTSTAYMELSSLRSEDTAVYYCARGWRGGGMTGSYYYYGMDVWGQGTTVTVSS
VL: DIQVTQTPSTLSASVGDRVTITCRASQSISSWLAWYQQKPGKAPKLLIYKASSLESGVPSRFSGSGSGTEFTLTISSLQPDDFATYYCQQHRGTFGQGTKVDIK
notes: also called Ab 826; Antibody Number 826
B2 returned a Kd in experiment [6] of 8.7 nM. Further, in the experiment with RSV F on RSV-A2 virus, the “Neutralization IC50 (RSV subtype A)” value was over 25 µg/mL. Also, in [7], the binding result is listed as “no binding”.

B3: ADI-21091 (antibody, V domains shown)
VH: QVQLVQSGAEVKKPGESLRISCQYSAYGFSTYWISWVRQLPGKGLEWMGRIDPSDSHTTYSPSFQGHVTLSADKSISTVYLQWSSLKASDTAMYYCARHQEYSGSDLDSWGQGTLVTVSS
VL: QPVLTQPPSVSAAPGQRVTISCSGTRSNIGYNFVSWYQQLPGTAPKLLIYDNNKRPSGIPDRFSGSKSGTSATLAITGLQTGDEADYYCGTWDSSLSALFGGGTKVTVL
With B3, the Kd in experiment [1] came out at 0.749 nM. Besides, the binding result in [2] and in experiment [3] was “no binding” throughout. For the same molecule, the “Neut IC50 (ug/ml) subtype A” value in experiment [4] stood at 0.29 µg/mL. Moreover, the “Neut IC50 (ug/ml) subtype B” value in experiment [5] was found to be 0.92 µg/mL.

B4: ADI-21087 (antibody, V domains shown)
VH: EVQLVESGGGLVQPGGSLRLSCAASGFTFSGYEMNWVRQAPGKGLEWLSYISSSGGIIYYADSVKGRFTISRDNARNSLFLQMNSLRAEDTAVYSCARARLLDGFDIWGQGTMVTVSS
VL: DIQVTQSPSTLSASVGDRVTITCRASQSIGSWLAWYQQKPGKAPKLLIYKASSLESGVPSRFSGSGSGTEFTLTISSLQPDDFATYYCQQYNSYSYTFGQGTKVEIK
For the molecule B4, the binding result in experiment [1] was “no binding”. Moreover, the Kd is 0.476 nM in experiment [2] and 0.545 nM in experiment [3].

B5: ADI-21068 (antibody, V domains shown)
VH: QVQLQESGPGLVKPSGTLSLTCVVSGGSIKSHNYWTWVRQPPGKGLEWVGEIYQSGRTNYNPSLNSRVTLSMDKSKNQLSLRLTSVTAADTAVYFCVGGGPFAPYYFQTWGQGTLVTVSS
VL: QSVLTQPPSVSGAPGQRVTISCTGSSSNIGAGYDVHWYQQLPGTAPKLLIYNNNNRPSGVPDRFSGSKSGTSASLAITGLQAEDEADYYCQSYDTSLSGYVFGTGTKVTVL
On to B5, for which the Kd in experiment [1] was 0.255 nM; in [2], 7.85 nM; in [3], 15.5 nM. In experiment [4], the “Neut IC50 (ug/ml) subtype A” value amounted to 0.1 µg/mL.

B6: ADI-21076 (antibody, V domains shown)
VH: EVQLVESGGGLVRPGGSLRLSCAASGFTFSSYAMDWVRQAPGKGLEWVSSISASSSFISYTDSVKGRFTISRDNAKNSLFLQMDNVTAEDTAVYYCARDYYESGRYFYGNPFDIWGQGTMVTVSS
VL: QPVLTQPPSVSGAPGQRVTISCTGSGSNIGAGFDVHWYQQLPGTAPKLLIYANSDRPSGVPDRFSASKSGTSASLAITGLQAEDEAHYYCQSYDNSLGGLCVFGTGTKLTVL
In the case of B6, the Kd was 0.219 nM in [1], 6.28 nM in experiment [2] and 7.34 nM in experiment [3]. Further, the “Neut IC50 (ug/ml) subtype A” value in experiment [4] was 0.03 µg/mL. For the same molecule, the “Neut IC50 (ug/ml) subtype B” value in experiment [5] is 0.3 µg/mL.

B7: ADI-21083 (antibody, V domains shown)
VH: QVQLQESGPGLVKPSGTLSLTCAVSGDSITTSNWWSWVRQPPGKGLEWIGEIYHSGVTRYNPSLKSRLSISLDKSRNQFSLKLSSVTAADTAVYYCARDEALFGHWFDPWGQGTLVTVSS
VL: QSVLTQPRSVSGSPGQSVTISCTGSSSDIGSYNYVSWYQQHPGKAPKLMLYDVSKRPSGVPDRFSGSKSVKTASLTISGLQAEDEADYYCCTYAGNSVVFGGGTKLTVL
In the case of B7, the Kd in [1] came to 2.25 nM. In addition, the binding result in experiment [2] and in experiment [3] was “no binding” throughout. Also, the “Neut IC50 (ug/ml) subtype A” value in [4] came out at 0.36 µg/mL. For the same molecule, the “Neut IC50 (ug/ml) subtype B” value in experiment [5] worked out at 0.79 µg/mL.

B8: ADI-41815 (antibody, V domains shown)
VH: EVQLLESGGGLVKPGGSLRLSCGASGFTFSTSSFNWVRQAPGKGLEWVSSISSTSSYVFYADSVKGRFTVSRDNAQNSLYLQMNSLRAEDTAVYYCARARGVGATIGFDYWGQGTLVTVSS
VL: not shown
notes: also called Ab 922; Antibody Number 922
In the case of B8, the binding result in [8] is given as “no binding (tested: 100 nM antigen)”. Moreover, the Kd in [9] amounted to 3.21 nM. For the same molecule, the “Neutralization IC50 (RSV subtype A)” value in experiment [10] was over 25 µg/mL.

B9: ADI-43646 (antibody, V domains shown)
VH: EMQLMQSGGVVVQPGGSLRLSCAASGFTFDDYAMHWVRQAPGKGLEWVSLISWDGGSTYYADSVKGRFTISRDNSKNSLYLQMNSLRAEDTALYYCAKDFDPLVVPAAMCFDYWGQGTLVTVSS
VL: QSVLIQPASVSGSPGQSITISCTGTSSDVGGYNYVSWYQQHPGKAPKLMIYDVSNRPSGVSNRFSGSKSGNTASLTISGLQAEDEADYYCSSYTSSSTLYVFGTGTKLTVL
In experiment [6], B9 had a Kd of 5.34 nM. Moreover, the “Neutralization IC50 (RSV subtype A)” value in the experiment with RSV F on RSV-A2 virus is over 25 µg/mL. In addition, the binding result in experiment [7] is “no binding”.

B10: ADI-21084 (antibody, V domains shown)
VH: EVQLVESGAEVKKPGASVTVSCKASGYTFTSNTISWLRQAPGQGLEWLGWVSASNGNTKYAQKFQGRVTMTTDTSATTAYMEVRTLRHDDTAIYYCARDILDMGGFHFDNWGQGTLVTVSS
VL: SYVLTQPPSVSVAPGQTARITCGGNNIGNKHVHWYKQKPGQAPVLVVYDDSDRPSGIPERFSGSNSGNTATLTVSRVEAGDEADFYCQVWDNTNDHPVFGGGTKVTVL
As for B10, the Kd in [1] amounted to 0.109 nM; in experiment [2] it was 22.9 nM; in experiment [3], 17.3 nM. For the same molecule, the “Neut IC50 (ug/ml) subtype A” value in experiment [4] was 0.14 µg/mL. Also, the “Neut IC50 (ug/ml) subtype B” value in [5] turned out to be 0.46 µg/mL.

B11: ADI-21073 (antibody, V domains shown)
VH: EVQLVESGGGLVRPGRSLRLSCAASGFTFSMFSMNWVRQAPGKGLEWLAYIGGSGSTIDYANSVSGRFTISRDNAKNSLYLQMNSLRDEDTAVYYCARIGLQTYNSHSSSSSPARAFDVWGQGTTVTVSS
VL: DIVLTQSPSSLSASVGDRVTITCRASQSIGRFLNWYQQKPGKAPKLLIYAASSLESGVPSRFSGSGSGTQFSLTISSLQPEDFTTYYCQQSYSTPTTFGGGTKVDIK
With B11, the Kd in [1] came to 4.06 nM; in [2] it was 0.675 nM; in experiment [3] it was 0.58 nM. Further, the “Neut IC50 (ug/ml) subtype B” value in [5] was found to be 11.2 µg/mL.

B12: ADI-21071 (antibody, V domains shown)
VH: EVQLVESGGGVVQPGKSLRLSCAVSGFTFSDHDMHWVRQAPGKGLEWVAAIWSDRTTKYYGDFVKGRFTISRDNSKNTLYLQMNSLRAEDTAVYYCARGQIYKSGGYYLVHLDHWGQGTLVTVSS
VL: DIQVTQSPSSLSASVGDRVTITCRASQSIASYLNWYQQKPGKAPNLLIYAASNLQSEVPSRFSGSGSGTDFTLTISGLQPEDFATYYCQQSYNIRLLTFGGGTKVEIK
With B12, the results for the Kd in experiment [1], in experiment [2] and in experiment [3] were 1.17 nM, 1.38 nM and 0.216 nM, respectively.

B13: ADI-21090 (antibody, V domains shown)
VH: EVQLLESGGGLVKPGGSLRLSCAASGFTSGFTFSDFYMSWIRLTPGKGLEWISYISTHSTSTNYADSVRGRFIISRDDARNSLFLQMNSLRAEDTAVYYCAGYYYGSGSYFFDHWGQGTLVTVSS
VL: ETTLTQSPATLSVSPGERATLSCRASQSVSSNVAWYQQKPGQAPRLLIYSASSRDTGIPVRFSGSGSGTEFTLSISSLQSEDFAVYYCQQYSDWPTFGQGTKVEIK
With B13, the Kd was found to be 1.17 nM in [1], 0.175 nM in [2] and 0.176 nM in experiment [3].

B14: ADI-41820 (antibody, V domains shown)
VH: EVQLVESGGGVVQPGRSLRLSCAVSGFTFSTYGMHWVRQTPGRGLEWVAVISYDGNHKYYADSVMGRFTISRDNSKDTLYLQVNSLRPEDSAVYYCAKDRIHCPNGVCYVHSSFYGLDVWGQGTTVTVSS
VL: QTVVTQEPSLTVSPGGTVTLTCGSSTGAVTSGHYPYWLQQKPGQAPRTLIYDTTNKDSWTPARFSGSLLGGKAALTLSGAQPEDEAQYYCLLSFNGPYWVFGGGTKVTVL
notes: also called Ab 926; Antibody Number 926
As to B14, in experiment [8], the binding result is “no binding (tested: 100 nM antigen)”. Moreover, the Kd in experiment [9] turned out to be 64.9 nM. Also, the “Neutralization IC50 (RSV subtype A)” value in [10] was over 25 µg/mL.

B15: ADI-21070 (antibody, V domains shown)
VH: EVQLVESGGGLVQPGGSLRLSCAASGFTFSRYAMGWVRQAPGKGLEWVSTISDSGGSTFYADSVEGRFTIARDSSKNTLSLHMNSLRAEDTAIYYCAREAYSSSWYSGGWFDRWGQGTLVTVSS
VL: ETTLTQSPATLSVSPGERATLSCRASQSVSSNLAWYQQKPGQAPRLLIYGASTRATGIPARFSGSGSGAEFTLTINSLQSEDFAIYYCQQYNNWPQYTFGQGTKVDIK
Regarding B15, the Kd in experiment [1] is 5.37 nM. For the same molecule, the binding result in experiment [2] and in experiment [3] was “no binding” in each case. Besides, in experiment [5], the “Neut IC50 (ug/ml) subtype B” value came to 2.38 µg/mL.
